Laboratory results: US10947270B2, “Targeted prodrug cytosine deaminase fusion carrier and application thereof” (National Yang-Ming University, priority 2015, dated 2021)
Changes are numbered by the printed parent chain. Where “and” joins values, the source holds several entries; their conditions need not be identical. Equal values may be shown once. Blank lines part the entries; values can stand above or below the molecule they belong to.

Experiments:
[1] = format: physicochemical
Protocol: The radiochemical purity of ^111In-DTPA-yCD and ^111In-DTPA-RGD4C-yCD are greater than 95% after marking and purification. Both are stored in HEPES buffer liquid (4° C.) for 48 hours, and the radiochemical purity is still higher than 85% (see FIG. 26). Both are placed in fetal bovine serum (37° C.) to simulate their stability in vivo. After 48 hours, the radiochemical purity of both is about 80%. It is shown that radioactive metal indium-111 is stably chelated on DTPA.

MCF-7 cells = experiment: Competitive cell uptake with cRGDfk; format: cell-based, human; conditions: cRGDfk 1000-fold molar excess, 4 hours
Protocol: (§1) The uptake of ^111In-DTPA-yCD is low in the all three cell lines. […] The uptake amount of ^111In-DTPA-RGD4C-yCD by each cell strain is used as a control group, and analyzed by two sample t-test statistical methods, *P-value<0.05, **P-value<0.01, ***P-value<0.001, ****P-value<0.0001.
(§2) ^111In-DTPA-yCD and ^111In-DTPA-RGD4C-yCD (20 μCi/50 pmol/mL) are separately added to the 24-well plate of the seeded cells (2.5×10^5 cells/well) and cultured for 4 hours, and then the radioactivity of the cells and culture medium are separately measured, calculate the uptake amount of the drug by the cells (shown as % AD/10^6 cells).

HUVEC cells = experiment: Competitive cell uptake with cRGDfk; format: cell-based, human; conditions: cRGDfk 1000-fold molar excess, 4 hours
Protocol: as §1, §2

U87MG cells = experiment: Competitive cell uptake with cRGDfk; format: cell-based, human; conditions: cRGDfk 1000-fold molar excess, 4 hours
Protocol: as §1, §2

[2] = set-up: species or system nude mice; conditions: mouse, in vivo
Protocol: The arrow is marked as a tumor.
In in-vitro cell experiment, the binding ability of ^111In-DTPA-RGD4C-yCD and the integrin αvβ3 receptor on the cell membrane has been verified. In order to know whether the drug can show its target effect in vivo, integrin αvβ3 is seeded subcutaneously in the right side of nude mice. After the high-expression U87MG tumor cells are grown to 100 mm^3, 60-70 μCi (3-3.5 μg) of ^111In-DTPA-yCD and ^111In-DTPA-RGD4C-yCD are injected directly into the tumor, the images are collected by microSPECT/CT after 1, 4, 24, 48 hours. It can be seen from the image (see FIG. 31) that the drug retention in the ^111In-DTPA-RGD4C-yCD group (orange arrow) is better than that in the ^111In-DTPA-yCD, and the target ligand RGD4C is missing. ^111In-DTPA-yCD enters the systemic blood circulation system within 1 hour and is metabolized by normal organs. From FIG. 31, it can be seen that the kidney is the main metabolic organ of these two drugs. […] After 24-48 hours, the amount of accumulation in the tumor is running out. On the contrary, ^111In-DTPA-RGD4C-yCD is bound with integrin αvβ3 on tumor cells, then the ratio of drug entering the systemic blood circulation is reduced, and the metabolic rate is slow.

[3] = set-up: species or system nude mice; conditions: mouse, in vivo; remark: listed apart in the source
Protocol: ES-2-luc tumor nude mice is intraperitoneally injected with 50 μCi (2.5 μg) ^111In-DTPA-yCD and ^111In-DTPA-RGD4C-yCD for 1, 4 and 24 hours, then organs are collected and their radioactivity is measured to obtain biodistribution, as shown in Table 19 and Table 20. […] In addition to the part accumulated in the tumor, another part of the drug is absorbed back into the blood circulation system by the peritoneal blood vessels. […] The pancreatic radioactivity of the two drugs is observed after 1 hour of injection. The pancreatic radioactivity of ^111In-DTPA-RGD4C-yCD (8.06±0.88% ID/g) is higher than that of ^111In-DTPA-yCD (3.91±0.36% ID/g), it is suspected that tumor cells invade the pancreas.

ES-2-luc cells = experiment: Competitive cell uptake with cRGDfk; format: cell-based; conditions: cRGDfk 1000-fold molar excess, 4 hours
U87MG, HUVEC cells = experiment: RGDfv peptide competition of EcCD fusion protein binding to cells; format: cell-based, human; conditions: RGDfv peptide at 10-fold relative concentration
Protocol: FIGS. 14A-14E show the binding activity and specificity test of EcCD fusion protein and U87MG, HUVEC and MCF-7 cell strain. […] (***compared to the untreated RGDfv group, P value<0.001, indicating a statistically significant difference)
It is confirmed from the above experimental results that the EcCD series protein fused to the RGD4C peptide has the binding activity with the expressing αvβ3 integrin cell strain, and the binding has the specificity of the RGD4C peptide and αvβ3 integrin of the cell expression, and also confirmed that the D314A mutation will not affect the binding activity of the RGD4C peptide and αvβ3 integrin.

αvβ3 integrin = αvβ3 integrin (Homo sapiens, UniProt P05106+P06756); experiment: ELISA binding of EcCD series fusion protein and αvβ3 integrin
Source text: FIGS. 13A-13B show the binding activity and specificity test of EcCD fusion protein and αvβ3 integrin receptor. […] (***compared with untreated RGDfv group, P value<0.001, indicating a statistically significant difference)
To confirm the binding ability of RGD4C peptide and αvβ3 integrin, the affinity of the protein and αvβ3 integrin is confirmed by ELISA method. […] This experiment confirms that RGD4C-EcCD_WT and RGD4C-EcCD_D314A have the binding activity of αvβ3 integrin, and this binding has the specificity of RGD4C peptide αvβ3 integrin.

[4] = Enzyme kinetic analysis of EcCD series fusion proteins, substrate cytosine; format: biochemical
Source text: FIGS. 11A-11D show the activity and kinetics analysis of EcCD series fusion protein enzymes, and the EcCD series proteins are combined with 5-FC at different concentrations for reaction. Respectively calculate the 5-FU formation reaction rate shown in FIG. 11A, 5-FC consumption reaction rate shown in FIG. 10B, uracil formation reaction rate shown in FIG. 10C and cytosine consumption reaction rate shown in FIG. 10D, substitute Michaelis-Menten formula, and calculate the base mass (Kcat) and Km value catalyzed by each mol enzyme in unit time. […]

[5] = Relative substrate selectivity of cytosine deaminase enzyme for 5-FC and cytosine (formula 1); format: biochemical; conditions: for [Kcat/Km(5-FC)]/{[Kcat/Km(cytosine)] + [Kcat/Km(5-FC)]}: relative substrate selectivity to 5-FC
Source text: Evaluation of the relative substrate selectivity of cytosine deaminase enzyme for 5-FC and Cytosine can be expressed by the following formula 1,
The higher the value, the higher the selectivity of the enzyme to the 5-FC substrate.

[6] = Enzyme kinetic analysis of EcCD series fusion proteins, substrate 5-FC; format: biochemical
Source text: FIGS. 11A-11D show the activity and kinetics analysis of EcCD series fusion protein enzymes, and the EcCD series proteins are combined with 5-FC at different concentrations for reaction. Respectively calculate the 5-FU formation reaction rate shown in FIG. 11A, 5-FC consumption reaction rate shown in FIG. 10B, uracil formation reaction rate shown in FIG. 10C and cytosine consumption reaction rate shown in FIG. 10D, substitute Michaelis-Menten formula, and calculate the base mass (Kcat) and Km value catalyzed by each mol enzyme in unit time.

[7] = system: U87MG, HUVEC and MCF-7 cells; experiment: Immunofluorescence of binding and distribution of EcCD fusion proteins in cells; format: cell-based, human; conditions: 37° C., 2 hours
Protocol: FIGS. 15A-15C show the binding and distribution of EcCD fusion proteins in U87MG, HUVEC and MCF-7 cell strain. The immunofluorescence staining is used to observe and experiment the EcCD fusion protein, which are respectively acted with U87MG cells in FIG. 15A, HUVEC cells in FIG. 15B and MCF-7 cells in FIG. 15C for 2 hours at 37° C., then fixed with 2% para-formadehyde, the fixed cells are first permeabilized with 0.1% Triton X-100 for 10 minutes, after that, cultured with 1% BSA blocking (dissolved in PBS containing Ca^2+, Mg^2+) for 1 hour at room temperature, then add a 1st antibody (Rabbit anti-His^6tag, Mouse anti-human CD51/61αvβ3 integrin), and then add a 2nd antibody (Anti-rabbit IgG-CF640R, Anti-mouse IgG-Alexa488), the protein distribution is observed by conjugated fluorescence microscope. (Green signal: αvβ3 integrin; red signal: anti-His^6tag; blue signal: Hoechst 33342 cell nucleus stain) (Scale bars: 20 μm)
Immunofluorescence is used to observe the distribution of the protein bound with cell in the cell. U87MG, HUVEC and MCF-7 cells act with culture medium containing EcCD_WT, RGD4C-EcCD_WT, EcCD_D314A and RGD4C-EcCD_D314A proteins at 37° C. for 2 hours, stain the cell, and observe protein distribution by the conjugated fluorescence microscopy.

[8] = RGDfv peptide at 10-fold concentration
[9] = RGDfv peptide at same concentration
[10] = cytosine consumption, listed as RGD4C-EcCDWT
[11] = uracil generation, listed as RGD4C-EcCDWT
[12] = 5-FC consumption (Table 5), listed as RGD4C-EcCDWT
[13] = 5-FU generation, listed as RGD4C-EcCDWT

Sequence of αvβ3 integrin (P06756 31-889 limits assumed): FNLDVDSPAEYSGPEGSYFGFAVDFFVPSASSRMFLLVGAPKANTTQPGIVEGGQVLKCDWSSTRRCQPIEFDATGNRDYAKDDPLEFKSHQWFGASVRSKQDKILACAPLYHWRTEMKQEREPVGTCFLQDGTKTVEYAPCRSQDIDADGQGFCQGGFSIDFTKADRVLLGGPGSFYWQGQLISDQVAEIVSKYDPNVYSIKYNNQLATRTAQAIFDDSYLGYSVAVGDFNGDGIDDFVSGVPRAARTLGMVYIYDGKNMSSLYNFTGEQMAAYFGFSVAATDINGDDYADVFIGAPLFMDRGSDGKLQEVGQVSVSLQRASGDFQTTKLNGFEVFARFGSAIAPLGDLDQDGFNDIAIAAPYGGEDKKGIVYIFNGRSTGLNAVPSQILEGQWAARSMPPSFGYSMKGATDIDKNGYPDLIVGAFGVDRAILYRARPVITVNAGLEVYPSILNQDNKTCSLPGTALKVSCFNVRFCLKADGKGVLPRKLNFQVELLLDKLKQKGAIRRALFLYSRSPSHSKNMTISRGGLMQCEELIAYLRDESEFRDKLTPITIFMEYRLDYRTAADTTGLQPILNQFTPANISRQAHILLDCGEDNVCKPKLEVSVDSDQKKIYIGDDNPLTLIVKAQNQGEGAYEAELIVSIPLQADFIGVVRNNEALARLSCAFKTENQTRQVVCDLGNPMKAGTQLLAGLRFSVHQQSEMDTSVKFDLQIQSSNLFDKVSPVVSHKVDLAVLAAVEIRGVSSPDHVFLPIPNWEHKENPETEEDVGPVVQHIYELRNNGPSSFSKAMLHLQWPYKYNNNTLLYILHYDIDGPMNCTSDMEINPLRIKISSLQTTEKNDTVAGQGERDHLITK
Sequence of αvβ3 integrin (P06756 891-1048 partner limits assumed): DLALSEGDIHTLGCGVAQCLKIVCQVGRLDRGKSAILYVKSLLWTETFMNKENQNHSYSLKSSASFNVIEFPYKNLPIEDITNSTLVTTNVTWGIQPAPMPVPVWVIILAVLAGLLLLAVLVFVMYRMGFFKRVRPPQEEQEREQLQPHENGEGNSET
Sequence of αvβ3 integrin (P05106 27-788): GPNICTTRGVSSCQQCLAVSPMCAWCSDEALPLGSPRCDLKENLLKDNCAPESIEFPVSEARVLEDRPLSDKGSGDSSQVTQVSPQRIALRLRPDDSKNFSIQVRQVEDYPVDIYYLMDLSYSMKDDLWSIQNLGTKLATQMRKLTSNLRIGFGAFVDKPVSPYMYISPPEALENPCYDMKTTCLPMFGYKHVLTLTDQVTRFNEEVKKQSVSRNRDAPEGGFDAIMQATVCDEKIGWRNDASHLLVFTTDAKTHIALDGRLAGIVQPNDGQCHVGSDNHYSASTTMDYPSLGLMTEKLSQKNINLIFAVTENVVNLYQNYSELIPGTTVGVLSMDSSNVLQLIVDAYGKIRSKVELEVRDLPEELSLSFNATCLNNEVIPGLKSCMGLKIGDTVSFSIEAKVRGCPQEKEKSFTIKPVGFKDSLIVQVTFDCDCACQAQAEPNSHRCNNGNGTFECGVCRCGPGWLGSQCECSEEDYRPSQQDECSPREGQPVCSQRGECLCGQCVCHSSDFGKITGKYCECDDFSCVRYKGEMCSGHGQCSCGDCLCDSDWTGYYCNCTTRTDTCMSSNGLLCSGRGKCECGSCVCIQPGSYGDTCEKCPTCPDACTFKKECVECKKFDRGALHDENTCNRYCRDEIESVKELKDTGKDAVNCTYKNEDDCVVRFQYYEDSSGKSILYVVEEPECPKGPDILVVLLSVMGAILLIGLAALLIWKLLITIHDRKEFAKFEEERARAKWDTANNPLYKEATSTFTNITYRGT

B1: ^111In-DTPA-RGD4C-yCD: indium-111 labeled DTPA-RGD4C-yCD protein (conjugate)
chain: MACDCRGDCFCVTGGMASKWDQKGMDIAYEEAALGYKEGGVPIGGCLINNKDGSVLGRGHNMRFQKGSATLHGEISTLENCGRLEGKVYKDTTLYTTLSPCDMCTGAIIMYGIPRCVVGENVNFKSKGEKYLQTRGHEVVVVDDERCKKIMKQFIDERPQDWFEDIGELEHHHHHH
radiochemical purity after incubation [1]: about 80% | decrease of cell uptake by cRGDfk (MCF-7 cells): ~45% | decrease of cell uptake by cRGDfk (HUVEC cells): about 65% | decrease of cell uptake by cRGDfk (U87MG cells): ~55% | accumulation in the tumor [2]: considerable drug accumulation in the tumor | radioactivity in the peritoneal cavity reduced to (fraction of 1 hour value) [3]: ¼ | radioactivity in tumor higher than that of ^111In-DTPA-yCD [3]: approximately 3 times | decrease of cell uptake by cRGDfk (ES-2-luc cells): about 70%

inhibition of binding capacity by RGDfv peptide (αvβ3 integrin; [8]): about 80% | inhibition of binding capacity by RGDfv peptide (αvβ3 integrin; [9]): about 30%
B2: RGD4C-EcCD_WT: targeted prodrug enzyme fusion protein (SEQ ID NO: 19) (protein)
chain: MGCDCRGDCFCMSNNALQTIINARLPGEEGLWQIHLQDGKISAIDAQSGVMPITENSLDAEQGLVIPPFVEPHIHLDTTQTAGQPNWNQSGTLFEGIERWAERKALLTHDDVKQRAWQTLKWQIANGIQHVRTHVDVSDATLTALKAMLEVKQEVAPWIDLQIVAFPQEGILSYPNGEALLEEALRLRADVVGAIPHFEFTREYGVESLHKTFALAQKYDRLIDVHCDEIDDEQSRFVETVAALAHHEGMGARVTASHTTAMHSYNGAYTSRLFRLLKMSGINFVANPLVNIHLQGRFDTYPKRRGITRVKEMLESGINVCFGHDDVFDPWYPLGTANMLQVLHMGLHVCQLMGYGQINDGLNLITHHSARTLNLQDYGIAAGNSANLIILPAENGFDALRRQVPVRYSVRGGKVIASTQPAQTTVYLEQPEAIDYKRLEHHHHHH
modifications: RGD4C_EcCD_WT
inhibition of binding by RGDfv peptide competition (U87MG, HUVEC cells): about 50% | Kcat ([4]; cytosine consumption): 148.9 ± 4.7 s⁻¹ | Km ([4]; cytosine consumption): 1700 ± 200 µM | Kcat [4, 10]: 143.9 ± 5.1 s⁻¹ | Km [4, 10]: 1600 ± 200 µM | Kcat ([4]; uracil generation): 141.7 ± 5.5 s⁻¹ | Km ([4]; uracil generation): 1500 ± 200 µM | Kcat [4, 11]: 150.8 ± 4.4 s⁻¹ | Km [4, 11]: 1700 ± 100 µM | [Kcat/Km(5-FC)]/{[Kcat/Km(cytosine)] + [Kcat/Km(5-FC)]} [5]: 0.047 | [Kcat/Km(5-FC)]/{[Kcat/Km(cytosine)] + [Kcat/Km(5-FC)]} ([5]; listed as RGD4C- EcCDWT): 0.048 | Kcat ([6]; 5-FC consumption (Table 5)): 10.7 ± 0.5 s⁻¹ | Km ([6]; 5-FC consumption (Table 5)): 2300 ± 400 µM | Kcat [6, 12]: 10.9 ± 0.5 s⁻¹ | Km [6, 12]: 2400 ± 400 µM | Kcat ([6]; 5-FU generation): 10.8 ± 0.6 s⁻¹ | Km ([6]; 5-FU generation): 2300 ± 500 µM | Kcat [6, 13]: 10.8 ± 0.5 s⁻¹ | Km [6, 13]: 2400 ± 500 µM | binding with cells [7]: have the ability of binding with U87MG and HUVEC cells | internalization [7]: will enter the internalization

inhibition of binding capacity by RGDfv peptide (αvβ3 integrin; [8]): about 80% | inhibition of binding capacity by RGDfv peptide (αvβ3 integrin; [9]): about 30% | relative substrate selectivity to 5-FC higher than the corresponding WT protein [5]: about 13.8 times
B3: RGD4C-EcCD_D314A: targeted prodrug enzyme fusion protein (SEQ ID NO: 20) (protein)
chain: B2 chain with D326A
modifications: RGD4C_EcCD_D314A
inhibition of binding by RGDfv peptide competition (U87MG, HUVEC cells): about 50% | Kcat ([4]; cytosine consumption): 17.7 ± 1.3 s⁻¹ | Km ([4]; cytosine consumption): 3000 µM and 2900 µM | Kcat/Km lower than that of the corresponding WT protein ([4]; substrate cytosine): about 15.5 times | Kcat ([4]; uracil generation): 21.7 ± 4.8 s⁻¹ | Km ([4]; uracil generation): 3800 ± 1700 µM | [Kcat/Km(5-FC)]/{[Kcat/Km(cytosine)] + [Kcat/Km(5-FC)]} [5]: 0.648 | [Kcat/Km(5-FC)]/{[Kcat/Km(cytosine)] + [Kcat/Km(5-FC)]} ([5]; listed as RGD4C- EcCD_D314A): 0.664 | Kcat ([6]; 5-FC consumption (Table 5)): 38.6 ± 1.0 s⁻¹ and 39.1 ± 1.0 s⁻¹ | Km ([6]; 5-FC consumption (Table 5)): 3500 ± 200 µM | Kcat ([6]; 5-FU generation): 39.4 ± 1.1 s⁻¹ and 38.4 ± 0.8 s⁻¹ | Km ([6]; 5-FU generation): 3500 µM and 3400 µM | Kcat/Km higher than that of the corresponding WT protein ([6]; substrate 5-FC): about 2.4 times | binding with cells [7]: have the ability of binding with U87MG and HUVEC cells | internalization [7]: will enter the internalization
